Like-named read-outs stand apart in the source and are kept apart here.

The source of these data is patent US20120253017A1 (published 2012).

Assay [1] addresses Myosin Light Chain (on streptavidin chip; vMLC1-sulfotag). As to the kind of experiment: BIAcore, bad fit.
Assay [2] deals with T1, human c-kit (recombinant, on BIAcore chip or beads) (human, UniProt P10721 26-524).
T1 construct: extracellular domain; also called hcKIT; biotinylated human c-kit
As to the kind of experiment: BIAcore, c-kit on SA chip. As for the experimental part:
All unique dAb clones were expressed in 50 ml cultures (OnEX plus carbenicillin) overnight at 37° C. and purified on protein A (VH dAbs) or protein L (VK dAbs). Purified dAbs were passed over a SA BIAcore chip coated with either human or mouse c-kit at 1 μM to identify those dAbs that bound specifically to either human or murine c-kit.
(In general: Surface plasmon resonance follows binding to a sensor surface in real time, without labels.)

The target of assay [3] is T2, human ventricular myosin light chain 1, GlySer(His)6 tag (human, UniProt P08590 1-195, limits assumed).
T2 construct: also called human vMLC-1; vMLC1-6xHIS
As to the kind of experiment: BIAcore, vMLC-1 immobilised.

In assay [4] the target is T3, mouse ventricular myosin light chain 1, GlySer(His)6 tag (mouse, UniProt P09542 1-204).
T3 construct: also called mouse vMLC-1
As to the kind of experiment: BIAcore, vMLC-1 immobilised.

For assay [5], the target named is T2, human ventricular myosin light chain 1, …. As to the kind of experiment: BIAcore, vMLC-1 immobilised. The protocol: (§1) Affinity of all 8 humanised mAbs was determined by BIAcore as described above.
The source holds these as a separate data set.

Assay [6] addresses T3, mouse ventricular myosin light chain 1, …. As to the kind of experiment: BIAcore, vMLC-1 immobilised. The protocol:
as §1
The source holds these as a separate data set.

For assay [7], the target named is T1, human c-kit (recombinant, on BIAcore …). As to the kind of experiment: BIAcore, dAb at 1000 and 500 nM. The protocol: Unique dAbs were expressed as bacterial supernatants in 2.5 L shake flasks in Onex media at 37° C. for 24 hrs at 250 rpm. dAbs were purified from the culture media by absorption to protein A or L agarose followed by elution with 10 mM glycine pH2.0.

T3 sequence (P09542 other isoform, or with tags, fused parts or gaps): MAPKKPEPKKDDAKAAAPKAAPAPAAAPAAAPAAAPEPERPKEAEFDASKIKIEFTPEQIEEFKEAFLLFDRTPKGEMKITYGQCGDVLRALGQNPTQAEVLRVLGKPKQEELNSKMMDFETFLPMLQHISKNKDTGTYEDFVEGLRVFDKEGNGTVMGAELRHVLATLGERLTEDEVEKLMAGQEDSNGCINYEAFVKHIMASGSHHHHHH
T2 sequence (P08590 other isoform, or with tags, fused parts or gaps limits assumed): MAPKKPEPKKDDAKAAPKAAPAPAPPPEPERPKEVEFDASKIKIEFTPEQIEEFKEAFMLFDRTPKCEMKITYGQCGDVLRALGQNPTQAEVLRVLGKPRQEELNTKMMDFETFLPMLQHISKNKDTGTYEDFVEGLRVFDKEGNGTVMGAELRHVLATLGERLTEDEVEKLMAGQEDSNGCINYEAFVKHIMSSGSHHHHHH
Myosin Light Chain (on streptavidin chip; vMLC1-sulfotag), sequence (chain, as listed by the source): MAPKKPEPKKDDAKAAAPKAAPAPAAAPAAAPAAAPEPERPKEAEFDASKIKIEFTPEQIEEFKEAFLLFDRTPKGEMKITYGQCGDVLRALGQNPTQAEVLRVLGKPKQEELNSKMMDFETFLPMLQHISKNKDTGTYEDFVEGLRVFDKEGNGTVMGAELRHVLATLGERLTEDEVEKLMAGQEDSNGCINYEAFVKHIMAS
T1 sequence (P10721 26-524): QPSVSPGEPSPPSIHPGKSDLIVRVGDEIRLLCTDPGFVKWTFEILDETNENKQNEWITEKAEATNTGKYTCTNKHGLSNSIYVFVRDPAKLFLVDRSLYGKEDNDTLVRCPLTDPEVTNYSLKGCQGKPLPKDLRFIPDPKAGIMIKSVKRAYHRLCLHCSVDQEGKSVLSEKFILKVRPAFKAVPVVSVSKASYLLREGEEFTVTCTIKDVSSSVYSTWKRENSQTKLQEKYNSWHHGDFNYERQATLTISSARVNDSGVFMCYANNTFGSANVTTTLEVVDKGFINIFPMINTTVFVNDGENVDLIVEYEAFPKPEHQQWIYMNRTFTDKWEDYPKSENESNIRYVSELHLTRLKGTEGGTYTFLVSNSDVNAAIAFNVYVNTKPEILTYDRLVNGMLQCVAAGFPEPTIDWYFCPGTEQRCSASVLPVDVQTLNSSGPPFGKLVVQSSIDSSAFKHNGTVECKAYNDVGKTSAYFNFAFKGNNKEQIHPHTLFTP

B1: DMS5056 (chimeric MLC mAb-cKIT dAb, DOM28m-107) (bispecific antibody)
heavy: not shown
light: DIVMSQSPSSLAVSAGDKVTMSCKSSQSLLYSRTRKNYLAWYQQKPGQSPKLLIYWASTRQSGVPDRFTGSGSGTDFTLTISSVQAEDLAVYYCKQSYNLFTFGSGTKLEIKRTVAAPSVFIFPPSDEQLKSGTASVVCLLNNFYPREAKVQWKVDNALQSGNSQESVTEQDSKDSTYSLSSTLTLSKADYEKHKVYACEVTHQGLSSPVTKSFNRGEC
Consider B1, for which the Kd – broadly, a measure of binding affinity in units of concentration – in assay [1] was found to be 0.048 nM.

B2: DMS5058 (chimeric MLC mAb-cKIT dAb, DOM28m-112) (bispecific antibody)
heavy: not shown
light: DIVMSQSPSSLAVSAGDKVTMSCKSSQSLLYSRTRKNYLAWYQQKPGQSPKLLIYWASTRQSGVPDRFTGSGSGTDFTLTISSVQAEDLAVYYCKQSYNLFTFGSGTKLEIKRTVAAPSVFIFPPSDEQLKSGTASVVCLLNNFYPREAKVQWKVDNALQSGNSQESVTEQDSKDSTYSLSSTLTLSKADYEKHKVYACEVTHQGLSSPVTKSFNRGEC
The molecule B2 registered a Kd in assay [1] of 0.042 nM.

B3: DOM28h-54 (other)
chain: EVQLLESGGGLVQPGGSLRLSCAASGFTFESYDMSWVRQAPGKGLEWVSGIYPDGGATYYADSVKGRFTISRDNSKNTLYLQMNSLRAEDTAVYYCAKGEPNLFDYWGQGTLVTVSS
notes: dAb, C-terminal FLAG tag (pDOM10)
For the molecule B3, the Kd in assay [2] was determined as 490 nM.

B4: DOM28h-79 (other)
chain: EVQLLESGGGLVQPGGSLRLSCAASGFTFKNYDMSWVRQAPGKGLEWVSGIWDDGWATYYADSVKGRFTISRDNSKNTLYLQMNSLRAEDTAVYYCAKGAATPGQTIFDYWGQGTLVTVSS
notes: as for B3
B4: in assay [2], the Kd is 218 nM.

B5: anti-MLC mAb 39-15 purified from the hybridoma (ATCC HB11709) (antibody, mouse IgG1, V domains shown)
VH: QVQLQQSGAELASPGASVKLSCKASGYTFTTYWIHWVKQRPGQGLEWIGAIYPGDGDTRYTQNFKDKATLTADSSSSTAYMQLSSLASEDSAVFYCAREGTPPFTTATFAMAYWGQGTSVTVSS
VL: DIVMSQSPSSLAVSAGDKVTMSCKSSQSLLYSRTRKNYLAWYQQKPGQSPKLLIYWASTRQSGVPDRFTGSGSGTDFTLTISSVQAEDLAVYYCKQSYNLFTFGSGTKLEIKR
notes: mouse IgG1 kappa; also called anti-MLC (Hybridoma)
On to B5, for which, in assay [3], the Kd came to 0.0003 nM; the koff (commonly the first-order rate constant of dissociation) is 1.1e-06 s⁻¹; the kon (in general, the second-order rate constant of association) was 3.5e+06 M⁻¹ s⁻¹. In addition, in assay [4], binding was put at a Kd of 0.0235 nM, the koff turned out to be 3.07e-05 s⁻¹ and the kon is 1.31e+06 M⁻¹ s⁻¹.

B6: DMS5052 (chimeric MLC mAb-cKIT dAb, DOM28m-007) (bispecific antibody)
heavy (part 1 of 2): QVQLQQSGAELASPGASVKLSCKASGYTFTTYWIHWVKQRPGQGLEWIGAIYPGDGDTRYTQNFKDKATLTADSSSSTAYMQLSSLASEDSAVFYCAREGTPPFTTATFAMAYWGQGTSVTVSS
heavy (part 2 of 2): STGEVQLLESGGGLVQPGGSLRLSCAASGFTFSNYAMGWVRQAPGKGLEWVSSISSSGFATYYADSVKGRFTISRDNSKNTLYLQMNSLRAEDTAVYYCAKSESRTFKAFDYWGQGTLVTVSS
light: DIVMSQSPSSLAVSAGDKVTMSCKSSQSLLYSRTRKNYLAWYQQKPGQSPKLLIYWASTRQSGVPDRFTGSGSGTDFTLTISSVQAEDLAVYYCKQSYNLFTFGSGTKLEIKR
notes: not shown: human IgG1 CH1-CH2-CH3
Turning to B6, the affinity in assay [1], expressed as Kd, was 0.047 nM.

B7: DOM28h-7 (other)
chain: DIQMTQSPSSLSASVGDRVTITCRASSNIDDDLGWYQQKPGKAPKLLIGWSSDLQSGVPSRFSGSGSGTDFTLTISSLQPEDFATYYCAQWWRGPATFGQGTKVEIKR
notes: as for B3
Consider B7, for which, in assay [2], the Kd was 1400 nM.

B8: DOM28h-26 (other)
chain: DIQMTQSPSSLSASVGDRVTITCRASRNIDDELAWYQQKPGKAPKLLIAWGSDLQSGVPSRFSGSGSGTDFTLTISSLQPEDFATYYCGQFRRGPLTFGQGTKVEIKR
notes: as for B3
In the case of B8, the Kd in assay [2] was 621 nM.

B9: DOM28h-73 (other)
chain: EVQLLESGGGLVQPGGSLRLSCAASGFTFDDYWMQWVRQAPGKGLEWVSSISDEGARTYYADSVKGRFTISRDNSKNTLYLQMNSLRAEDTAVYYCAEYPGLAHFGEDFDYWGQGTLVTVSS
notes: as for B3
With B9, in assay [2], the Kd was 1300 nM.

B10: humanised 39-15 mAb 1-39:1-3 (antibody, V domains shown)
VH: QVQLVQSGAEVKKPGASVKVSCKASGYTFTTYWIHWVRQAPGQRLEWMGAIYPGDGDTRYTQNFKDRVTITRDTSASTAYMELSSLRSEDMAVYYCAREGTPPFTTATFAMAYWGQGTLVTVSS
VL: DIQMTQSPSSLSASVGDRVTITCKSSQSLLYSRTRKNYLAWYQQKPGKAPKLLIYWASTRQSGVPSRFSGSGSGTDFTLTISSLQPEDFATYYCKQSYNLFTFGQGTKLEIKR
Consider B10, for which the koff was found to be 2.17e-05 s⁻¹ in assay [5] and 8.8e-05 s⁻¹ in assay [6].

B11: humanised 39-15 mAb 4-1:1-8 (antibody, V domains shown)
VH: QVQLVQSGAEVKKPGASVKVSCKASGYTFTTYWIHWVRQATGQGLEWMGAIYPGDGDTRYTQNFKDRVTMTRNTSISTAYMELSSLRSEDTAVYYCAREGTPPFTTATFAMAYWGQGTLVTVSS
VL: DIVMTQSPDSLAVSLGERATINCKSSQSLLYSRTRKNYLAWYQQKPGQPPKLLIYWASTRQSGVPDRFSGSGSGTDFTLTISSLQAEDVAVYYCKQSYNLFTFGQGTKLEIKR
For the molecule B11, in assay [5], binding was put at a Kd of 0.0128 nM, the koff was 1.87e-05 s⁻¹ and the kon was determined as 1.46e+06 M⁻¹ s⁻¹. In assay [6], this molecule had a Kd of 0.0589 nM, a koff of 7.78e-05 s⁻¹ and a kon of 1.32e+06 M⁻¹ s⁻¹.

B12: humanised 39-15 mAb 4-1:1-3 (antibody, human IgG1, kappa, V domains shown)
VH: QVQLVQSGAEVKKPGASVKVSCKASGYTFTTYWIHWVRQAPGQRLEWMGAIYPGDGDTRYTQNFKDRVTITRDTSASTAYMELSSLRSEDMAVYYCAREGTPPFTTATFAMAYWGQGTLVTVSS
VL: DIVMTQSPDSLAVSLGERATINCKSSQSLLYSRTRKNYLAWYQQKPGQPPKLLIYWASTRQSGVPDRFSGSGSGTDFTLTISSLQAEDVAVYYCKQSYNLFTFGQGTKLEIKR
notes: human IgG1 kappa
Regarding B12, in assay [5], binding was characterised by a dissociation constant (Kd) of 0.00825 nM, the koff turned out to be 1.52e-05 s⁻¹ and the kon stood at 1.84e+06 M⁻¹ s⁻¹. In assay [6], this molecule registered a Kd of 0.0396 nM, a koff of 6.6e-05 s⁻¹ and a kon of 1.67e+06 M⁻¹ s⁻¹.

B13: humanised 39-15 mAb 1-39:1-46 (antibody, V domains shown)
VH: QVQLVQSGAEVKKPGASVKVSCKASGYTFTTYWIHWVRQAPGQGLEWMGAIYPGDGDTRYTQNFKDRVTMTRDTSTSTVYMELSSLRSEDTAVYYCAREGTPPFTTATFAMAYWGQGTLVTVSS
VL: DIQMTQSPSSLSASVGDRVTITCKSSQSLLYSRTRKNYLAWYQQKPGKAPKLLIYWASTRQSGVPSRFSGSGSGTDFTLTISSLQPEDFATYYCKQSYNLFTFGQGTKLEIKR
Take B13: the koff in assay [5] came out at 3.41e-05 s⁻¹; in assay [6] it was 0.000122 s⁻¹.

B14: humanised 39-15 mAb 4-1:1-46 (antibody, human IgG1, V domains shown)
VH: QVQLVQSGAEVKKPGASVKVSCKASGYTFTTYWIHWVRQAPGQGLEWMGAIYPGDGDTRYTQNFKDRVTMTRDTSTSTVYMELSSLRSEDTAVYYCAREGTPPFTTATFAMAYWGQGTLVTVSS
VL: DIVMTQSPDSLAVSLGERATINCKSSQSLLYSRTRKNYLAWYQQKPGQPPKLLIYWASTRQSGVPDRFSGSGSGTDFTLTISSLQAEDVAVYYCKQSYNLFTFGQGTKLEIKR
notes: human IgG1 kappa
In assay [5], B14 displayed a Kd of 0.00818 nM, a koff of 1.63e-05 s⁻¹ and a kon of 1.99e+06 M⁻¹ s⁻¹. In assay [6], this molecule gave a Kd of 0.0426 nM, a koff of 7.65e-05 s⁻¹ and a kon of 1.79e+06 M⁻¹ s⁻¹.

B15: DOM28h-20 (other)
chain: DIQMTQSPSSLSASVGDRVTITCRASRSISDELTWYQQKPGKAPKLLISWGSSLQSGVPSRFSGSGSGTDFTLTISSLQPEDFATYYCLQTWELPVTFGQGTKVEIKR
notes: as for B3
On to B15, for which the dissociation constant (Kd) in assay [2] was found to be 1000 nM.

B16: DOM28h-66 (other)
chain: EVQLLESGGGLVQPGGSLRLSCAASGFTFPLYEMHWVRQAPGKGLEWVSRISPTGATTYYADSVKGRFTISRDNSKNTLYLQMNSLRAEDTAVYYCAKDRRGRAGVTFDYWGQGTLVTVSS
notes: dAb, C-terminal FLAG tag (pDOM10); also called DOM28h-066
With B16, the Kd in assay [2] and in assay [7] was 2900 nM in each case.

B17: DOM28h-110 (other)
chain: EVQLLESGGGLVQPGGSLRLSCAASGFTFRKYAMMWVRQAPGKGLEWVSTITASGGGTYYADSVKGRFTISRDNSKNTLYLQMNSLRAEDTAVYYCAKPLNQYATQFDYWGQGTLVTVSS
notes: as for B3
With B17, the Kd in assay [2] and in assay [7] was 3300 nM throughout.

B18: DOM28h-78 (other)
chain: EVQLLESGGGLVQPGGSLRLSCAASGFTFEHYPMGWVRQAPGKGLEWVSHISYDGTDTYYADSVKGRFTISRDNSKNTLYLQMNSLRAEDTAVYYCAKFHNQWDIYSFDYWGQGTLVTVSS
notes: as for B3
With B18, in assay [2], the Kd worked out at 233 nM.

B19: humanised 39-15 mAb 4-1:5-51 (antibody, human IgG1, kappa, V domains shown)
VH: EVQLVQSGAEVKKPGESLKISCKGSGYSFTTYWIHWVRQMPGKGLEWMGAIYPGDGDTRYTQNFKDQVTISADKSISTAYLQWSSLKASDTAMYYCAREGTPPFTTATFAMAYWGQGTLVTVSS
VL: DIVMTQSPDSLAVSLGERATINCKSSQSLLYSRTRKNYLAWYQQKPGQPPKLLIYWASTRQSGVPDRFSGSGSGTDFTLTISSLQAEDVAVYYCKQSYNLFTFGQGTKLEIKR
notes: human IgG1 kappa
In assay [5], B19 registered a Kd of 0.00169 nM, a koff of 2.65e-06 s⁻¹ and a kon of 1.57e+06 M⁻¹ s⁻¹. Also, in assay [6], binding was put at a Kd of 0.0153 nM, the koff amounted to 2.16e-05 s⁻¹ and the kon is 1.42e+06 M⁻¹ s⁻¹.
